# Test results from IntAct's records for PubMed 11782428.
# B1: Tyrosine-protein kinase Lyn (Homo sapiens), P07948 (parent)
# chain: MGCIKSKGKDSLSDDGVDLKTQPVRNTERTIYVRDPTSNKQQRPVPESQLLPGQRFQTKDPEEQGDIVVALYPYDGIHPDDLSFKKGEKMKVLEEHGEWWKAKSLLTKKEGFIPSNYVAKLNTLETEEWFFKDITRKDAERQLLAPGNSAGAFLIRESETLKGSFSLSVRDFDPVHGDVIKHYKIRSLDNGGYYISPRITFPCISDMIKHYQKQADGLCRRLEKACISPKPQKPWDKDAWEIPRESIKLVKRLGAGQFGEVWMGYYNNSTKVAVKTLKPGTMSVQAFLEEANLMKTLQHDKLVRLYAVVTREEPIYIITEYMAKGSLLDFLKSDEGGKVLLPKLIDFSAQIAEGMAYIERKNYIHRDLRAANVLVSESLMCKIADFGLARVIEDNEYTAREGAKFPIKWTAPEAINFGCFTIKSDVWSFGILLYEIVTYGKIPYPGRTNADVMTALSQGYRMPRVENCPDELYDIMKMCWKEKAEERPTFDYLQSVLDDFYTATEGQYQQQP
# partner: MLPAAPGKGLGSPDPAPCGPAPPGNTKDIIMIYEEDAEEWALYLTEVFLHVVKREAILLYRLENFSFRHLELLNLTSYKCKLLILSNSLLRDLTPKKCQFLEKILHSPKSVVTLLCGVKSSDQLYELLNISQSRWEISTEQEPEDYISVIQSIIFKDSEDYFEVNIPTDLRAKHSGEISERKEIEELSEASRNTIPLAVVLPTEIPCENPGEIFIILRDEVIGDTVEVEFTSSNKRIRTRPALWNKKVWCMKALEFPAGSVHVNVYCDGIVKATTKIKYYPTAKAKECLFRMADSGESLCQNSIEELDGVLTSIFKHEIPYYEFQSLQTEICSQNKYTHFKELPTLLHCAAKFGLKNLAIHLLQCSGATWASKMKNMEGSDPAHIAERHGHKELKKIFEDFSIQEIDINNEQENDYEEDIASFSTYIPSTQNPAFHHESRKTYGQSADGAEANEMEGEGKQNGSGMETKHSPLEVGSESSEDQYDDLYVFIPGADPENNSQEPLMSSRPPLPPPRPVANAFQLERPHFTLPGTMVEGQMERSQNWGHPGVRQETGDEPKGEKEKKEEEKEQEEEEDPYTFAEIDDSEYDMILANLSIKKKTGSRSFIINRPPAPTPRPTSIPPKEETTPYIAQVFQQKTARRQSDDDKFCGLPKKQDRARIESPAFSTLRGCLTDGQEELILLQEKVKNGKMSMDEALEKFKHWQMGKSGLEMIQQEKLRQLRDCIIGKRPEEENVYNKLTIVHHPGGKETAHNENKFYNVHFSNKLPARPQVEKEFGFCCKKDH
# Variants of: B1
# Conditions: with bank1_human BANK1, Q8NDB2
row,effect of a mutation on the interaction,Variant
1,decreasing interaction strength,K275L
2,with no effect,Y508F

# Continued, variant first:
row,Variant,effect of a mutation on the interaction
1,P114L,with no effect
2,R156D;S158F,with no effect
